Tests used:
[1] = target: T1, HCoV-OC43 prefusion-stabilized spike (S) protein / S ectodomain trimer (human coronavirus OC43, UniProt P36334 14-1297)
T1 sequence: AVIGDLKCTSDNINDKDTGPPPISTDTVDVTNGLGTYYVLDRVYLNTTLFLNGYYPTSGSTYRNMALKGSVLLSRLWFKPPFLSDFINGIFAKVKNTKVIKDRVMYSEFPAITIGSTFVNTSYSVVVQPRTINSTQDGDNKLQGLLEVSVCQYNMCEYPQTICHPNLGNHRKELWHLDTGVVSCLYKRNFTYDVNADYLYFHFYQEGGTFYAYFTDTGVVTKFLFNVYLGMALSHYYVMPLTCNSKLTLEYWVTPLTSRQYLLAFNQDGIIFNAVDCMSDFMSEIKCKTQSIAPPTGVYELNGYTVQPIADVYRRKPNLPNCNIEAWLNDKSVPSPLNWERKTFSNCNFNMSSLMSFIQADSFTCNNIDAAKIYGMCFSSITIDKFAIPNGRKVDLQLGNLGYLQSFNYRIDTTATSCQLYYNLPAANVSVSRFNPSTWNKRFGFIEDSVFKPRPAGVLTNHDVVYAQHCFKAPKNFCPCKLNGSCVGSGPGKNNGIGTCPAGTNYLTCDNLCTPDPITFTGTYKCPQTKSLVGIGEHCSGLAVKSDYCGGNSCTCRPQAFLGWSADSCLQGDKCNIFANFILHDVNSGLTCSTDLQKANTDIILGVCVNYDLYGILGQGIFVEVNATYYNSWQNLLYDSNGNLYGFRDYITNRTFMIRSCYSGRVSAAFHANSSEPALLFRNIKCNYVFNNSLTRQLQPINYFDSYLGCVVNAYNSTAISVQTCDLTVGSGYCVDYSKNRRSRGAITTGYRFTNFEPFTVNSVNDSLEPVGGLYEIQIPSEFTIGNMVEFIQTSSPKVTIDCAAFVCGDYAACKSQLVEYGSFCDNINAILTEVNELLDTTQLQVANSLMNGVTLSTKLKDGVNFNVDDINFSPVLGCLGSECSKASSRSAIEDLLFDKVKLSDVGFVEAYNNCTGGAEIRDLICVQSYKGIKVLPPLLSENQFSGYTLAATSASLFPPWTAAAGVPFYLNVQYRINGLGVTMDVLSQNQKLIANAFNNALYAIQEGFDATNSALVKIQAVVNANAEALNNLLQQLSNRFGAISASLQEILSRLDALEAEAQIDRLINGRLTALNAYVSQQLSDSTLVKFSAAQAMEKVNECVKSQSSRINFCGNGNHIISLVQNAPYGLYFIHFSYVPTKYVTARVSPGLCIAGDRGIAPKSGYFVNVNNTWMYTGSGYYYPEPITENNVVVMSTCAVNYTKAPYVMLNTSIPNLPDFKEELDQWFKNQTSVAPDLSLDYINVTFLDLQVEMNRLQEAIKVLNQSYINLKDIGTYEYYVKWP

[2] = target: T2, HCoV-HKU1 prefusion-stabilized spike (S) protein / S ectodomain trimer (human coronavirus HKU1, UniProt Q5MQD0 13-1300)
T2 sequence: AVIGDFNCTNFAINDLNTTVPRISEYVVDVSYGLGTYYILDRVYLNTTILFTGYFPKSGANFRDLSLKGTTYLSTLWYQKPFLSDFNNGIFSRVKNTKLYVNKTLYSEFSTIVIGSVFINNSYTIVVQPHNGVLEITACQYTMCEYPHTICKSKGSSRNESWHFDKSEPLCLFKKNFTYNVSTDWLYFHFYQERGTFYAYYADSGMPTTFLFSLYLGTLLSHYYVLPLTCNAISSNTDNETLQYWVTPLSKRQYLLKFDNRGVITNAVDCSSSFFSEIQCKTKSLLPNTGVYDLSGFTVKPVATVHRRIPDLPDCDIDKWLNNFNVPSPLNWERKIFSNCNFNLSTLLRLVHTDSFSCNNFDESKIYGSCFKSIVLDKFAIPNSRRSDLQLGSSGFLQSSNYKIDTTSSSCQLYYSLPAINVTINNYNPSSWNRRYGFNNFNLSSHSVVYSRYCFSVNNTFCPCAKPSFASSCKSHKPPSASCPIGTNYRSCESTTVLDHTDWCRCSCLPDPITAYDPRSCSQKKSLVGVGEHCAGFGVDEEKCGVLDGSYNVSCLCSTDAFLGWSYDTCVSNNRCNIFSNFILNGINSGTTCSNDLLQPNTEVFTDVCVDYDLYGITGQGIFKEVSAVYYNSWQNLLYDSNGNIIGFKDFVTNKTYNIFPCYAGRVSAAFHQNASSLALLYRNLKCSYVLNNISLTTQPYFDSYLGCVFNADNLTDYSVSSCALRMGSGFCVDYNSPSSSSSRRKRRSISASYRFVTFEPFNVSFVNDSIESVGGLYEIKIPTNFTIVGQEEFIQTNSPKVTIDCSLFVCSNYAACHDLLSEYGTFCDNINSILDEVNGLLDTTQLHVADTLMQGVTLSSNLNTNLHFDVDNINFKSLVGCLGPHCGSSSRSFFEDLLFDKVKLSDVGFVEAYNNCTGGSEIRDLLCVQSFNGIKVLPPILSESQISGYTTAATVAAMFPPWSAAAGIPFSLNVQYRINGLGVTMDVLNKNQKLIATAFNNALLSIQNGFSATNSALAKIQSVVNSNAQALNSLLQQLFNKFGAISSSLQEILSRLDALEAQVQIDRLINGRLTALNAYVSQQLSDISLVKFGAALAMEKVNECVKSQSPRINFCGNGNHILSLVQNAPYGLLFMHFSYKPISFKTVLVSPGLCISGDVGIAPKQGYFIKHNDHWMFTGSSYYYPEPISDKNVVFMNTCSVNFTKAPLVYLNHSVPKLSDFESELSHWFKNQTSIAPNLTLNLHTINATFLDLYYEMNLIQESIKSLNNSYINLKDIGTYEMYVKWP

[3] = target: SARS-CoV (Urbani strain) prefusion-stabilized spike (S) protein / S ectodomain trimer (SARS-CoV (Urbani strain), UniProt P59594 14-1195)

B1: antibody S2P6 (antibody 420 1 1), human monoclonal antibody expressed as recombinant human IgG1 (antibody, V domains shown)
VH: EVQLVQSGAEVKKPGASVKVSCKASGYTFTSQYMHWVRQAPGQGLEWIGIINPSGVHTSYAQKFQGRVTLTRDTSTSTLYMELSSLRSEDTAVYYCARGSPKGAFDYWGQGTLVTVSS
VL: not shown
Kd [1]: 0.372 nM | Kd [2]: 2.44 nM | Kd [3]: < 0.001 nM
